From the nanobody polyreactivity screen of Harvey et al. (2022) come the findings set out here.

The nature of the data set: yeast display, Sf9 membrane polyspecificity reagent, FACS + sequencing; frameworks hold sequencing errors. The gist of the method: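 Galactose-induced (36–48 hours) yeast carrying a synthetic nanobody display library were exposed to 10% biotinylated, detergent-solubilized Sf9 membrane reagent at 4 °C for 1 hour. FACS followed streptavidin microbead enrichment, using low and high (top ~1%) gates for expression (anti-HA) and reagent binding (streptavidin). Colony PCR, MiSeq 2 × 250 sequencing and CDR-length filtering followed. Labels for polyreactivity reflect the gate of origin.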
“QVQLVESGGGLVQAGGSLRLSCAASGSTFDGYAMGWYRQAPGKERELVAAISRSGGRTYNADSVKGRFTISRDYAKNTVYLQMNSLKPEDTAVYYCAAYKPRPQYTDDDYWGQGTQVTVSS”: the “polyreactivity (PSR sort gate)” value is “high polyreactivity”.

“QVQLVESGGGLVQAGGSLRLSCAASGSTFGQYAMGWYRQAPGKERELVATISSGSTYYADSVKGRFTISRDNAKNTVYLQMNSLKPEDTAVYYCAATRRWYKSKKTFYYWGQGTQVTVSS”: the “polyreactivity (PSR sort gate)” value is “high polyreactivity”.

As for “QVQLVESGGGLVKARGSLRLSCAASGFTFGSYAMGWYRQAPGKERELVAAITRGSGGTYYADSVKGRFTISRDNAKNTVYVQMNSLKPEDTAVYNCASCSRSRGALRFAHFDYWGQGTQGTVSS”, the “polyreactivity (PSR sort gate)” value is recorded as “high polyreactivity”.

As to “QVQLVESGGGLVQAGGSLRLSCAASGLTFVRYAMGWYRQAPGKERELVAVISYSGARTYYADSVKGRFTISRDNAKNTVYLQMNSLKPEDTAVYYCAARQYTTGKYDSWGQGTQVTVSS”, the “polyreactivity (PSR sort gate)” value was “high polyreactivity”.

With “QVQLVESGGGLVQAGGSLRLSCAASGFIFWSYAMGWYRQAPGKERELVAVITSGASTYYADSVKGRFTISRDNAKNTVYLQMNSLKPEDTAVYYSAAEYWVPAWKFGYEYWGQGTQVTVSS”, the “polyreactivity (PSR sort gate)” value is “high polyreactivity”.

Regarding “QVQLVESGGGLVQAGGSLRLSCAASGLIFPYYTMGWYRQAPGKEGELVAVINRGGSTSYADSVKGRFTISRDNEKISVYLQMNSLKPEYTAVYYCARRTPYYTSYAFDSWGQGTQVTVSS”, the “polyreactivity (PSR sort gate)” value is listed as “high polyreactivity”.

Consider “QVQLVESGGGLVHAGGSLRLSCAASGIIFYLYAMGWYRQAPGKERELVAAISRRGVSTYYADSVKGRFTISRDNAKNTVYLQMNSLKTEDTAVYYCAAAGFGYTGEEYWGQGTQVTVSS”, for which the “polyreactivity (PSR sort gate)” value is recorded as “high polyreactivity”.

As to “QVQLLESGGGLVQPGGSLRLSCAASGSTFDSYVKGWYRKAPGKERELVAANSSDDSTYYADSVKGRFTISRDNAKNTVYLQMISLKPEDTAVYYCAATNFRDYYCSWNYYYWGQGTQVTVSS”, the “polyreactivity (PSR sort gate)” value is listed as “low polyreactivity”.

Take “QVQLVESGGGLVQEGGSLRLSCAASGSIFGRNVMGWYRQAPGKERELVAAISEGGGRTYYADSVKGRFTISRDNAKNTVYLQMNSLKPEVTAVYYCAAAYFSSGYKYYYWGQGTQVTVSS”: the “polyreactivity (PSR sort gate)” value is on record as “high polyreactivity”.

With “QVQLVESGGGLVQAGGSLRLSCAASGSIFWVNAMGWYRQAPGQVSELVAAINYSDGSTSYADSVKGRFTISRDNAKNTVYLQMNSLKPEDTAVYYCNAESFELMYYWGQGTQVTVSS”, the “polyreactivity (PSR sort gate)” value is listed as “low polyreactivity”.

Regarding “QVQLVESGGGLVQAGGSLRLSCAASGFIFAYNAMGWYRQAPGKEREFVAAINSGGDSTYYADSVKGRFTISRDYANNTVYLQMNSLKPEDTAVYSCAAVIGNKRYYYWGQGTQVTVSS”, the “polyreactivity (PSR sort gate)” value was “low polyreactivity”.

“QVQLVESGGGLVQAGGSLRLSCAASGITFYGYAMGWYRQAPGKERELVASISYGGGSTYYADSVKGRFTISRDNAKNTVYFQLNSLKPEDTAVYYCAAQAATYYSGYYYWGQGTQVTVSS”: the “polyreactivity (PSR sort gate)” value is recorded as “high polyreactivity”.

Turning to “QVQLVESGGGLVQAGGSLRLSCAASGLIFTSNTMGWYRQAPGKERELVAAISRRGGNTYYADSVKGRFTISRDNAKNTVYLQMNSLKPEDTAVYYCAAVAYALGFASKEDYWGQGTQVTVSS”, the “polyreactivity (PSR sort gate)” value was “high polyreactivity”.

As for “QVQLVESGGGLVQAGGSLRLSCAASGSIFYSNAMGWYRQAPGKERELVAAITVGGGRTYYADSVKGRFTISRDNAKYTVYLQMNSLNPEDTAVYYCAADSHASTYDYWGQGTQVTVSS”, the “polyreactivity (PSR sort gate)” value is given as “low polyreactivity”.

Turning to “QVQLVESGGGLVQAGGSLRLTCAASGSTFRENAMGWNRQAPGKERELVAAITSGGSTYYADSVKGRFTISRDNAKNTVYLQMNSLKPEDTAVYYGNADLEPYDYWGQGTQVTVSS”, the “polyreactivity (PSR sort gate)” value is “low polyreactivity”.

Take “QVQLVESGGGLVQAGGSLRLSCAASGIIFSDYAMGWYRQAPGKERELVAAITGGGSTYYADSVKGRFTISRDNAKKTVDLQMNSLKPEDTAVFYCNADWARLWIRSTEVDYWGQGSQVTVSS”: the “polyreactivity (PSR sort gate)” value is “low polyreactivity”.

For the sequence “QVQLVESGGGLVQAGGSLRLSCAASGRTFLVNAMGWYRQAPGKERELVAVMTRGGSTNYADSVKGRFTISRDNAKNTVYLQMNSLKPEDTAVYYCAKQFSPYRSYGPVVRYDYWGQGTQVTVSS”, the “polyreactivity (PSR sort gate)” value was “low polyreactivity”.

Regarding “QVQLEESGARIVQAGGSLRLSCAASGITLAGYVMGWYRQAPGKERELVADISSSGDSTYYADSVNGRFTISRDNAKNTVYLQMNSLKPEDTAVYYCAAEEIIPLIYKGYPFDYWGQATQVTVSS”, the “polyreactivity (PSR sort gate)” value is given as “low polyreactivity”.

As to “QVQLVESGGGLVQAGGSLRLSCAASGRTFYRYAMGWYRQAPGKEREFVAAISNGGSNTRYADSVKGRFTISRDNAKNTVYLQMNSLKPEDTAVYYCAARAYQHYNWGQGTQVTVSS”, the “polyreactivity (PSR sort gate)” value was “high polyreactivity”.

On to “QVQLVESGGGLVQAGGSLRLSCAASGRTFPYNAMGWYRQAPGKERELVAAITSSGSSTYYADSVKGRFTISRDNAKNTVYLQMNSLKPEDTAVYYCAADSYLIVGSSLVWQGYYYWGQGTQVTVSS”, for which the “polyreactivity (PSR sort gate)” value is on record as “low polyreactivity”.

Take “QVQLVESGGGLVQAGGSLRLSCAASGINFNYYVMGWYRQAPGKERELVAAISRSGGRTRYADSVKGRFTISRDNAKNTVYLQMNSLKPEDTAVYYCAAVGSVNYDADFDYWGQGTQVTVSS”: the “polyreactivity (PSR sort gate)” value is on record as “high polyreactivity”.

With “QVQLVESGGGLVQAGGSLRLSCAASGPTFRANAMGWYRQAPGKEREMVAAISQRGGNTYYADSVKGRFTISRDKAKNTVYLQMNSLKPEDTAVYYCSADITTYRRGRYEYEYWGQGTQVTVSS”, the “polyreactivity (PSR sort gate)” value is given as “high polyreactivity”.

As to “QVQLVESGGGLVQAGGSLRLSCAASGSTFGHYAMGWSRQAPGKERELVAAISWSGASTYYADSVKGRFTISRDNAKNTVYLQMNSLKPEDTAVYYCATVGPWPGEYDYWGQGTQVTVSS”, the “polyreactivity (PSR sort gate)” value is reported as “low polyreactivity”.

For “QVQLVESGGGLVQAGGSLRLSCAASGSTFAPYAMGWYRQAPGKERELVAAIRSSGGSTYYADSVKGRFTISRDNAKNTVYLQMNSLKPEDTAVYYCSDDYYTSADYVDYYYWGQGTQVTVSS”, the “polyreactivity (PSR sort gate)” value is “low polyreactivity”.

Consider “QVQLVDSGGGLVQAGGSLRLSCAASGSTLRRYAMGWYRQAPGKERELVAAISGSGDSTYYADSVKGRFTISRDNAKNTVYLQMNSLKPEDTAVYYCNAVYAFNGYDYWGQGTQVTVSS”, for which the “polyreactivity (PSR sort gate)” value is listed as “low polyreactivity”.

As to “QVQLVESGGGLVQAGGSLSLSCAASGSIIPDYAMGWYRQAPGKERELVAAITWRDDSTYYADSVKGRFTISRDNAKNTVYLQMNSLKPEDTAVYYCNASALDPLYAKDDYWGQGTQVTVSS”, the “polyreactivity (PSR sort gate)” value is “low polyreactivity”.

As to “QVQLVESGGGLVQEGGSLRLSCAASGNIFRINGMGWYRQAPGKERELVATITGNGGSTYYAASVKGRFTISRDNAQNTVYLQMNSLKPEDTAVFYCAAQTTVYIYDYWGQGTQVTVSS”, the “polyreactivity (PSR sort gate)” value was “low polyreactivity”.

For “QVQLVESGGGLVQAGGSLRLSCAASGSIFGYNAMGWYRQAPGKERELVAVINASGASTYYADSVKGRFTISRDNAKNTVYLQMNSLKPEDTAVYYCAKDPFPFPGGDYWGQGTQVTVSS”, the “polyreactivity (PSR sort gate)” value is on record as “low polyreactivity”.

On to “QVQLVESGGGLVQAGGSLRLSCAASGFTFGYYTMGWYRQAPGKERELVAAISWRGGRTYYADSVKGRFTISRDNAKNTVYLQMNSLKPEDTAVYYCAAEYTYGWTYRPFDYWGQGTQVTVSS”, for which the “polyreactivity (PSR sort gate)” value is given as “high polyreactivity”.

In the case of “QVQLVESGGGLVQAGGSLRLSCAASGRTFAFNAMGWYRQAPGKERELVATISWSGGSTYYADSVKGRFTISRDNAKNTVYLQMNSLKPEDTAVYYCAKVVRGSNDYDYWGQGTQVTVSS”, the “polyreactivity (PSR sort gate)” value is on record as “high polyreactivity”.

Take “QVQLVESGGGLVQAGGSLRLSCAASGFIFSNYAMGWYRQAPGKERELVAAISWSGGNTYYADSVKGRFTISRDNAKNTVYLQMNSLKPEDTAVYYCTRVKAYYRWFLPRYQYNYWGQGTQVTVSS”: the “polyreactivity (PSR sort gate)” value is “high polyreactivity”.

As for “QVQLVESGGGLVQAGGSHRLSCAASGRTFYFYTMGWYRPAPGKESELVATIRWSAGSTYYADSVKGRFTISRDNAKNTVYLQMNSLKPEDTAVYYCNADPYVYSSWEYGYWGLGTQVTVSS”, the “polyreactivity (PSR sort gate)” value is “high polyreactivity”.

“QVQLLESGGMVQAGGLRLSCAASGSVSYQEAMGWYRQAPGKERELVATISFGANTNYADSVKGRFTISRDNAKNTVYLQMNSLKPEDTAVYYCAAESLFYDYYGYWGQGTQVNVSS”: the “polyreactivity (PSR sort gate)” value is “low polyreactivity”.

“QVKLEESGGGLVQAGGSISLSCAASGSIFFWYTMGCYRQAPGKERELVATITGSGSSTTYADSVKGRFTISRDNAKNTVYLQMNSLKPEDTAVYYCAAADIIDHSFTYDYWGQGTQVTVSS”: the “polyreactivity (PSR sort gate)” value is listed as “low polyreactivity”.

As to “QVQLVESGGGLVQAGGSLRLSCAASGIIFAYYAMGGYRHAPGKERELVAAISRSGGITYYADSVKGRFSISRDNAKNTVYLQMNSLKPEDTAVYDCARFSSRPYDYWGQGTQVTVSS”, the “polyreactivity (PSR sort gate)” value is “high polyreactivity”.

“QVHLVESGGGLVQAGGSLRLSCAASGSTFYYYVMGWYRQAPGKERELVAAINISGGNTYYADSVKGRFTISRDNAKNTVYLKKNSLIPEDTAVYYCAADYRSSRTTEYYYWGQGTQVTVSS”: the “polyreactivity (PSR sort gate)” value is given as “low polyreactivity”.

For “QVQLVESGGGLVQAGGSLRLSCAASGSTFDYYTMGWYRQAPGKERELVAAISSSGGSTYYADSVTGRFTISRDNAKNTVYLQMNSLKPEDTAVYDCAARGYHYSYLRGDTGYYYWGQGTQVTVSS”, the “polyreactivity (PSR sort gate)” value was “low polyreactivity”.

On to “QVQLVESGGGLVQAGGSLRLSCAASGRIFRGYLMGWYRQAPGKERELVAVITSGGRTYYADSVKGRFTISRDNAKNTVYLQMNSPKPEDTAVYYCATYPRYKPYYYWGQGTQVTVSS”, for which the “polyreactivity (PSR sort gate)” value is “low polyreactivity”.

As to “QVQLVESGGGLVQAGGSLRLSCAASGSTFVNNAMGWYRQAPGKERELVAAITNGGSTNYADSVKGRFTISRDNAKNTVYLQMNSLKPEDTAVYYCAKYGDPYRHRSGTVEYGYWGQGTQVTVSS”, the “polyreactivity (PSR sort gate)” value was “low polyreactivity”.

As for “QVQLVESGGGLVQAGGSLRLSCAASGRIFYYNGMGWYRQAPGKERELVAAISSRGGSTYYADSVKGRFTISRDNAKNTVYLQMNSLKPEDTAVYYCAATLSDRYSWRPYGMYYWGQGTQVTVSS”, the “polyreactivity (PSR sort gate)” value is reported as “high polyreactivity”.

As for “QVQLVESGGGLVQAGGSLRLSCAASGRNFPVYAMGCYRQAPGKERELVAAMTRSDDSTYYADSVKGRFTISRDNAKNTVYLQMNSLKPEDTAVYYCAADVEGWTVESDVYRVGYDFWGQGTQVTVSS”, the “polyreactivity (PSR sort gate)” value is “low polyreactivity”.
